Measurements published in the nanobody polyreactivity screen of Harvey et al. (2022).

Experiment: yeast display, Sf9 membrane polyspecificity reagent, FACS + sequencing; frameworks hold sequencing errors
Method in brief: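 Galactose-induced (36–48 hours) yeast carrying a synthetic nanobody display library were exposed to 10% biotinylated, detergent-solubilized Sf9 membrane reagent at 4 °C for 1 hour. FACS followed streptavidin microbead enrichment, using low and high (top ~1%) gates for expression (anti-HA) and reagent binding (streptavidin). Colony PCR, MiSeq 2 × 250 sequencing and CDR-length filtering followed. Labels for polyreactivity reflect the gate of origin.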

Q: With “QFQLVESGGGLVQAGGSLSLSCAASGSTFVWYAMGWYRPAPGKERELVAAINFGGTTYYADSVKGRFTISRDNAKNTVYLQMNSLKPEDNAVYYCATEYDYGYWYPDGWVIFDYWVQGTQVTVSS” as the sequence, how does the “polyreactivity (PSR sort gate)” value read?
A: low polyreactivity

Q: With “QFQLVESGGGLVQAVVSLRLSCAASGSIFDIYDMGWYRQAPGKETELDAAIRSGDRTHYADSVKGRFTISRDNAKITVYLQMNSLKPEDTAVYYCAADRYIYLNREHDYWGQGTQVTVSS” as the sequence, how does the “polyreactivity (PSR sort gate)” value read?
A: low polyreactivity

Q: With “QFQLVESGGGLVQSGGSLRLSCAASGSTFGYYTMGWYRPAPGTERELVAAITWSGGSTYYADSVKGRFTISRDNAKNTVYLPMNSLKPEDTAVYYCAADDYWTPFGYWGQGTQVTVSS” as the sequence, how does the “polyreactivity (PSR sort gate)” value read?
A: low polyreactivity

Q: With “QFQLVESGGRLVQAGGSLRLSCAASGSIFYLNAIGSYRQAPGKERELVAAISRSGGRTYYADSVKGRFTISRDNAKNTVYLQMNSLIPEDTAVYYCAADVQAQGAYRGGYWGQGTQVTVSS” as the sequence, how does the “polyreactivity (PSR sort gate)” value read?
A: high polyreactivity

Q: Which “polyreactivity (PSR sort gate)” value does the source give for “QFQLVESGRGLVQAGGSLRLSCAASGSTFSANAMGWYRQAPGKERELVAAISRSGTRTYYADSVKGRFTISRDNAKNTVYLQMNSLKPEDTAVYYCAAYVYQYGYDYWGQGTQVTVSS” here?
A: high polyreactivity

Q: Which “polyreactivity (PSR sort gate)” value does the source give for “QFQLVESGVGLVQAGARLRLSSAASGFTIKYYAMGWYRQAPGKERELVATITRGGSTNYADSVKGRFTISRDNAKNTVYLQMNSLNPEDTAVYYCAKGYPYYYYDYDSWGQGTQVTVSS” here?
A: high polyreactivity

Q: Which “polyreactivity (PSR sort gate)” value does the source give for “QFQLVESGVVLVQAAASLRLSCAASGIIFQRNDMGWNRQAPGKETDLVANIRDGGITNADSVKGRFTISRDNAKNTVYLQMNCLKPEDTAVYYCARDDTSPGYGDQSSNAAYYYWGQGTQVTVSS” here?
A: low polyreactivity

Q: With “QFQLVESRGGLVKAGGSLRLTCAASGSILYQNTMGWYRQATGKERELVAAISGSGSRTYYADSVKGRFTISRDNAKNTVYLQMNSLKPEDTAVYYCAASGYWPFRSGFGYWGQGTQVTVSS” as the sequence, how does the “polyreactivity (PSR sort gate)” value read?
A: high polyreactivity

Q: With “QFQLVESVGGLVQAGSRLRLSCAASGRTFIPYAMGWYRQAPGKERELVAAITSSGGLTYYADSVMGRFTISRDNAKNTVYLQMNSLKPEDTAVYYCNKYARGYDMDYWGHGTQVTVSS” as the sequence, how does the “polyreactivity (PSR sort gate)” value read?
A: high polyreactivity

Q: Which “polyreactivity (PSR sort gate)” value does the source give for “QFQLVYSGGGLVQAGGSLRLSCAASGRTYGIYAMVWYRQAPGKERDLVAAISSDASTSYADSLKGRFTISRDNAKITVYLQMNSLKPEDTAVYYCGADPGTYYEWGYVYWGQGTQVTVSS” here?
A: low polyreactivity

Q: For “QGHLVESWGGLVQAGGSLRLSCAASGSIFKDNAMGWYRQAPGKERELVAAITWSGGSTYYADSVKGRFTSSRDNANNTVYLQMNSLKAEDTAVDRYKYDYWGQGTQVTVSS”, which “polyreactivity (PSR sort gate)” value is on record?
A: low polyreactivity

Q: With “QGQLEESGGCLVQAGGSLRLSCAASGIIFYKNAMGWYRPAPGKERELVAAISGSGGRTYYADSVKGRFTISRDNAKNTVYLQMNSLKPEVTAVSYCAARQPYRHGYESWGQGTQVTVSS” as the sequence, how does the “polyreactivity (PSR sort gate)” value read?
A: high polyreactivity

Q: With “QGQLEESGGGLVQAGCSLRRSCAASGNIFLIYAMGWSRQAPGKEGELVAAISFSDDTTDYADSVKGRFTSSRDNAKNTAYIQMNSLKPEDTAVYYCAAELYYDVANTQYDYWGQGTQVTVSS” as the sequence, how does the “polyreactivity (PSR sort gate)” value read?
A: high polyreactivity

Q: For “QGQLEESGGGLVQAGGSLRLSCAASGFIIYDYDMGRYRQAPGKERELVAAITYSGGSTYYADSVKGRFTISRDNAKNTVYLQMNSLKPEDTAVYHCAAVKSRYAVAVDYYYWGQGTQVTVSS”, which “polyreactivity (PSR sort gate)” value is on record?
A: low polyreactivity

Q: Which “polyreactivity (PSR sort gate)” value does the source give for “QGQLEESGGGLVQAGGSLRLSCAASGRIFRYNTMGWYRQAPGKERELVADITSSDSSTYYADSVKGRFTISRDNAKNTLYLQMNSLKPEDTEVYFCAARDSGYGWRYYYWGHGTQVTVSS” here?
A: low polyreactivity

Q: For “QGQLEESGGGLVQAGGSLRLSCAASGRTFAFYTMGWYRQAPGKERELVAAITRGGSTYYADSVKGRFTISRDNAKNTVYVQMNSLKPEDTAVYYCAASTRYYSQQFDYWGQGTQVTVSS”, which “polyreactivity (PSR sort gate)” value is on record?
A: high polyreactivity

Q: With “QGQLVESGEGLVQAGGSLRLRCAASGSIIRYYTMGGYRQAPGKERELVAAISWSGGSTYYADSVKGRFTISRDNANNTVYLQMNSLKPEETSVYYCNAVSFAYNPYSATYDYWGQGTQVTVSS” as the sequence, how does the “polyreactivity (PSR sort gate)” value read?
A: high polyreactivity

Q: For “QGQLVESGGALVQAGGSLRLSCAASGSTFVRNAMGWYRPAPRKERELVAAISNVGSTYYADSVKGRFTISRDNAKNTVYFQKNSLKPEDTAVYYCTKQLWYHKFNYWGQGTQVTVSS”, which “polyreactivity (PSR sort gate)” value is on record?
A: low polyreactivity

Q: Which “polyreactivity (PSR sort gate)” value does the source give for “QGQLVESGGGLFQAGGSLRLSCAASGRIFRRYAMGWDIQAPGKERELVAAISRGGSTYYADSVKGRFTISRDNAKNTVYLQMNSLKPEDTAVYYCAAYSQSTSFGGYDSWGQGTQVTVSS” here?
A: high polyreactivity

Q: Which “polyreactivity (PSR sort gate)” value does the source give for “QGQLVESGGGLGQAGGSLRLSCAASGSTVVLYAMGWYRQARGKERELVAAISGGATTTYADSVKGRFTISRDNAKNTVYLQMNSLKPEDTAVYYCAADFSTFVLSGAAMDYWGQGTQVTVSS” here?
A: low polyreactivity

Q: With “QGQLVESGGGLGQEGCSLRLSCAASGNTFIINAMGWYRQARGNERELVAAITSGGSTNYADSVKGRFTISGDNAKNTVYLQMNSLKPEDTAVYDCAARTRLYYYKVRKYRMDYWGQGTQVTVSS” as the sequence, how does the “polyreactivity (PSR sort gate)” value read?
A: low polyreactivity

Q: With “QGQLVESGGGLVQAGASLSLTSDDYRTIVKTYAMGSYRPAPGKESEMVAAISWRGGSTYYADSVKGRITISRDNAKNTVYLQMNSMKPVDTAVYYCVAVRNFGTRTLWYRYGYWGQGSQVTVSS” as the sequence, how does the “polyreactivity (PSR sort gate)” value read?
A: high polyreactivity

Q: For “QGQLVESGGGLVQAGGCLRLSCAASGGTFDYNAMGWYRQAPGKERELVAAITSGASTYYADSVKGRFTISRDNAKNTVYLQMNSLKPQDTAVYYCAKGPTPGYDYWGQGTQVTVSS”, which “polyreactivity (PSR sort gate)” value is on record?
A: low polyreactivity

Q: For “QGQLVESGGGLVQAGGRLRLSCAASGSIFRAYAMGWYRQAPGKERELVADISRSGGSTYYADSVKGRFTISRDNAKNTVYLQMNSLKPEDTAVYYCYAPVGWSVEARVSRGYEDQYDYWGQGSQVTVSS”, which “polyreactivity (PSR sort gate)” value is on record?
A: low polyreactivity

Q: Which “polyreactivity (PSR sort gate)” value does the source give for “QGQLVESGGGLVQAGGRLRLTCAASGSIFAGNAMGWYRQAPGKERELVAAIRWSTGSTYYADSVKGRFTISRDNAKNTVYLQLNSLKPEDTAVYYCAATDTTFYGIVRYEYWGQGTQVTVSS” here?
A: low polyreactivity

Q: For “QGQLVESGGGLVQAGGRLSLSCAASGFTFDNYAMGWYSQAPGKERELVAAITSGGSTNYADSVKGRFTISRDNAKNTVYLQMNSLKPEDTAVYYCNVERSIQAQVNAEYYYWGQGTQVSVSS”, which “polyreactivity (PSR sort gate)” value is on record?
A: low polyreactivity

Q: Which “polyreactivity (PSR sort gate)” value does the source give for “QGQLVESGGGLVQAGGSLRLSCAASGFIFGTYAMGWYRQAPGKERELVAAITGSGGDTYYADSVKGRFTISRDNAKNTVYLQMNSLKPEDTAVYYCAAVRPPTPSRRREDYWGQGTQVTVSS” here?
A: low polyreactivity

Q: Which “polyreactivity (PSR sort gate)” value does the source give for “QGQLVESGGGLVQAGGSLRLSCAASGFTFPGYAMGWYRQAPGNVRELVAAITGSGGRTYYADSVKGRFTISRDNAKNTVYLQMNSLKPEDTAVYYCLARSSYNWYDYWGQGTQVTVSS” here?
A: high polyreactivity

Q: With “QGQLVESGGGLVQAGGSLRLSCAASGIIFILYTMGWYRQAPGKEREFVATISSGGGSTFYADSVKGRFTISRDNAKNTVYLQMNSLKPEDTAVYYCAAEQLYYCERYYIWGYYYWGQGTQVTVSS” as the sequence, how does the “polyreactivity (PSR sort gate)” value read?
A: low polyreactivity

Q: For “QGQLVESGGGLVQAGGSLRLSCAASGLTFGSYTMGWYRQAPGKERELVAAITSDGSTNYADSVKGRFTISRDNAKNTVYLQMNSLKPEDTAVYYCAATRVSYRQFKAIGYHYWGQGTQVTVSS”, which “polyreactivity (PSR sort gate)” value is on record?
A: high polyreactivity

Q: With “QGQLVESGGGLVQAGGSLRLSCAASGRIFAGNAMGWYRQAPGKDRELVAAISKSGRSTYYADSVKGRFTISRDNAKNTVYLQMNSLKPEDTAVYYCAKLYYPVSDQYDYYYWGQGTQVTVSS” as the sequence, how does the “polyreactivity (PSR sort gate)” value read?
A: low polyreactivity

Q: Which “polyreactivity (PSR sort gate)” value does the source give for “QGQLVESGGGLVQAGGSLRLSCAASGRTFTDYAMGWYRQAPGKEWELVADISGSGGSTYYADSVKGRFTISRDNAKNTVYLQMNSLNPEDTAVYYCNAVGSRRDKFDYWGQGTQVTVSS” here?
A: low polyreactivity

Q: For “QGQLVESGGGLVQAGGSLRLSCAASGSIFFGNAMGWYRQAPGKERELVAGITGGGSTYYADSVKGRFTISRDNAKNTVYLQMNSLKPEDTAVYYCNKKAYRKTGMDYWGQGTQVTVSS”, which “polyreactivity (PSR sort gate)” value is on record?
A: low polyreactivity

Q: For “QGQLVESGGGLVQAGGSLRLSCAASGSIFIGNAMGWYRQAPGKERELVAAITGRGGRTYYADSVKGRFSISRDNAKNTVYLQMNSLKPVDTAVYDCNARSGSSYSGYYYWGQGTQVTVSS”, which “polyreactivity (PSR sort gate)” value is on record?
A: high polyreactivity

Q: With “QGQLVESGGGLVQAGGSLRLSCAASGSIFRPYPMGWYRQAPGKERELVATISSTGITNYADSVKGRFTISRDNAKNTVYLQMNSLKPEDTADYYCSAGLWYSYDYWGQGTQVTVSS” as the sequence, how does the “polyreactivity (PSR sort gate)” value read?
A: high polyreactivity

Q: For “QGQLVESGGGLVQAGGSLRLSCAASGSIFWYYAMGGYRQAPGKERELVADITSTGGSTYYADSVKGRFTISRDNAKNTVYLQMNSLKPEDTAVYYCAGEASYHGYYSLGYWGQGTQVTVSS”, which “polyreactivity (PSR sort gate)” value is on record?
A: high polyreactivity

Q: With “QGQLVESGGGLVQAGGSLRLSCAASGSTFDYYVMGWYRQAPRKERELVAAISSGDSTNYADSVKGRFTISRDNAKNTVYLQMNSLKPEDTAVSYCAAEYTVHYDYWGQGTQVTVSS” as the sequence, how does the “polyreactivity (PSR sort gate)” value read?
A: low polyreactivity

Q: Which “polyreactivity (PSR sort gate)” value does the source give for “QGQLVESGGGLVQAGGSLRLSCAASGSTFLHYAMGWYRQAPGKERELVAAISRRGGRTYYADSVKGRFTISRDNAKNTVYLQMNRLKPEDTAVYNCAVDGIRDGYWIFYYWGQGTQVTVSS” here?
A: low polyreactivity

Q: For “QGQLVESGGGLVQAGGSLRLSCAASGSTFTYNAMGWYRQAPGKERELVASISSGTTTYYADSVKGRFTISRDNAKNTVYLQMNSLKPEDTAVYYCAVDSWSRVQGWLAHNYDYWGQGTQVTVSS”, which “polyreactivity (PSR sort gate)” value is on record?
A: low polyreactivity

Q: Which “polyreactivity (PSR sort gate)” value does the source give for “QGQLVESGGGLVQAGGSLRLSCAATGFTFRYYAMGWYRHAPGKERELVATITRGGSTNYADSVKGRFTISRDNAKNTVYLQMNSLKPEDTAVYYCATGKNYWRGYEYWGQGTQVTVSS” here?
A: low polyreactivity

Q: With “QGQLVESGGGLVQAGGSLRLSCAAYGSTFYLYPMGRYRQAPGKERELVASISLSGRSTYYADSVKGRFTISRDNAKNTVYLQMNRLKQEDTAVYYCAARRFAYYFQYLGGGYWGQGTQVTVSS” as the sequence, how does the “polyreactivity (PSR sort gate)” value read?
A: high polyreactivity
